From the Immune Epitope Database (IEDB)

Target: HLA-A*02:01
Assay: IEDB peptide-MHC binding, purified MHC/competitive/radioactivity; ≥ and ≤ were set here for values at or beyond the usual limits of such assays
[1] = source organism: Human gammaherpesvirus 8

| IC50 (source organism: Homo sapiens) [µM] | Sequence | IC50 [1] [µM] |
| --- | --- | --- |
|  | QLASILGCVD | 0.312 |
|  | SVDFYQFRV | 0.312 |
|  | RIFYNILEI | 0.062 |
|  | RLGAIPPLV | 0.333 |
|  | SVSDFDLRI | 0.416 |
|  | HLDFWHHEV | 0.02 |
|  | GALLPGNLV | 0.5 |
|  | ALIGTMCGI | 0.033 |
|  | KLLGTWMFSV | 0.003 |
|  | ITATFTAPL | 0.038 |
|  | RLSNRICFWA | 0.384 |
|  | ATLGTVILL | 0.178 |
|  | LLGTWMFSV | 0.003 |
|  | FKNSSNLFT | 0.064 |
| 0.06 | TLGTVILLV |  |
|  | SLVTGFINFI | 0.238 |
|  | RLYQASAVM | 0.277 |
|  | FLYVVCSLA | 0.004 |
|  | FIALNLSFI | 0.078 |
|  | FVAVHPVDV | 0.019 |
|  | ALIGTMCGIL | 0.416 |
